From patent US20200339702A1 (ULTRAHUMAN THIRTEEN, published 2020)
Numbering of substitutions follows the chain as printed.

T1: rhesus monkey ERBB3 human Fc tagged recombinant protein (rhesus monkey (Macaca mulatta), UniProt P21860 20-643 (human entry), limits assumed)
T1 construct: also called rhesus ERBB3-Fc; rhERBB3
T1 chain: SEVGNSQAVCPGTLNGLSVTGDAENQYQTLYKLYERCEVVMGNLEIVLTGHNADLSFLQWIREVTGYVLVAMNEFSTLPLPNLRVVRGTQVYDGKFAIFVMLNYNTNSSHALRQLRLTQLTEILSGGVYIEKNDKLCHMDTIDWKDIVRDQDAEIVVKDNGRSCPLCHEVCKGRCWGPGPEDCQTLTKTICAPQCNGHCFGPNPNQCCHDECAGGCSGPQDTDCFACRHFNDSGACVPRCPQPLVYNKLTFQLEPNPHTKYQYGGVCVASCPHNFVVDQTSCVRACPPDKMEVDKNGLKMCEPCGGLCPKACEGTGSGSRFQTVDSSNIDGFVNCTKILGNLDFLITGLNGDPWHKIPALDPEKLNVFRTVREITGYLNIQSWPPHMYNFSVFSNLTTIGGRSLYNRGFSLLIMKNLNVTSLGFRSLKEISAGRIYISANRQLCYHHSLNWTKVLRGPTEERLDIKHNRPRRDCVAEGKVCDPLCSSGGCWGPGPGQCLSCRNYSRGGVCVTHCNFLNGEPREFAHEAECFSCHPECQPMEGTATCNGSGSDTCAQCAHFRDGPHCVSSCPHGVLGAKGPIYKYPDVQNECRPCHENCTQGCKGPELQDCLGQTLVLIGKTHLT

T2: rhesus ERBB3 on transiently transfected HEK-293 cells (rhesus monkey (Macaca mulatta), UniProt P21860 20-1342 (human entry))
T2 construct: also called rhesus ERBB3+ HEK-293 cells
T2 chain: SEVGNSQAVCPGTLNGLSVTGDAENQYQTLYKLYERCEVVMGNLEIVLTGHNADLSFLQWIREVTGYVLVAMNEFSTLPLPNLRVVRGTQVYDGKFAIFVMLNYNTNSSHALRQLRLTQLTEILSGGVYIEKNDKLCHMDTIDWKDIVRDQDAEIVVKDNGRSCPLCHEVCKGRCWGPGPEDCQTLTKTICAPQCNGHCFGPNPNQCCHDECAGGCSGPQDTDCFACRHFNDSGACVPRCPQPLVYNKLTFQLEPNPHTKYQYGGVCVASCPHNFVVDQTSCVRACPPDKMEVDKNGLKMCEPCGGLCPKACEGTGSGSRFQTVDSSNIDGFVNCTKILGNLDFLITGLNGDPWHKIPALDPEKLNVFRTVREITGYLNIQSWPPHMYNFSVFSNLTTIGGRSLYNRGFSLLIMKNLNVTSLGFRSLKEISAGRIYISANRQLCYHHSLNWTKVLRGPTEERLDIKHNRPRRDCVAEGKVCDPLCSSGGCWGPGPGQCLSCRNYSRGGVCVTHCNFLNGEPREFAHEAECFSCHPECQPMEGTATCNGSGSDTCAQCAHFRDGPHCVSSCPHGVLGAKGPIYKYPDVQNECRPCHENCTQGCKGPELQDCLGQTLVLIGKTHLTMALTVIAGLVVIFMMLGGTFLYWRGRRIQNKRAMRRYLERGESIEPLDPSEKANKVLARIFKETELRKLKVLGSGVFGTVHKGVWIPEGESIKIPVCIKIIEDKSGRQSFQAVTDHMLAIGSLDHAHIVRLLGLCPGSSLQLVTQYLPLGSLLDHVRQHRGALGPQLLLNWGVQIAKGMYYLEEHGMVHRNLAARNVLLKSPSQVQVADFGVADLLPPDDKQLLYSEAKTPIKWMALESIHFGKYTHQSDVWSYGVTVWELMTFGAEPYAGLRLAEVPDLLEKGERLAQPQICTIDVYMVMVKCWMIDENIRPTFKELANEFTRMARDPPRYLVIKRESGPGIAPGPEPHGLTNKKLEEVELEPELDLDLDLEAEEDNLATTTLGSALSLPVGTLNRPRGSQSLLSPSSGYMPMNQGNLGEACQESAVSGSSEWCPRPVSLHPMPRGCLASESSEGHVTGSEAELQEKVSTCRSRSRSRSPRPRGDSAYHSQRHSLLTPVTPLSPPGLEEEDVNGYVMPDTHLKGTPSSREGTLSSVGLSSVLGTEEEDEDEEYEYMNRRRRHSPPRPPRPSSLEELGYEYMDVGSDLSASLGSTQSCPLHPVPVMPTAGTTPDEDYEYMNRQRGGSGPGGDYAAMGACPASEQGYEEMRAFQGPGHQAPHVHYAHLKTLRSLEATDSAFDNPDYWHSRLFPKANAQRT

T3: rhesus monkey ERBB3 His tag, monomeric (rhesus monkey (Macaca mulatta), UniProt P21860 20-643 (human entry), limits assumed)
T3 chain: T1 chain

B1: 15G11-DI1 IgG1 (antibody, V domains shown)
VH: QVQLVESGGGLVKPGGSLRLSCAASGFTFSDYGMSWVRQAPGKGLEWVSTISDSGSYTYYPDSVKGRFTISRDNAKNSLYLQMNSLRAEDTAVYYCARELGDYDGFDYWGQGTLVTVSS
VL: DIQMTQSPSSLSASVGDRVTITCRASQEISSYLSWYQQKPGKAPKLLIYAASSLDTGVPSRFSGSGSGTDFTLTISSLQPEDFATYYCLQYDSTPYTFGGGTKVEIK
notes: Human IgG1 format, human Ckappa
B2: MH2 IgG1null (antibody, V domains shown)
VH: B1 VH with V37I, T58I, P61A, L100W, Y108F
VL: B1 VL with E28S, D55Q, T56S, Y96L
notes: Designer (Maximally Humanized) clone; Human IgG1null and human Ckappa
B3: 15G11-DI11 IgG1 (antibody, V domains shown)
VH: B1 VH
VL: B1 VL with I29A, I48A, T56S, T94S
notes: as for B1
B4: 15G11-DI6 IgG1 (antibody, V domains shown)
VH: B1 VH with G33S, V37I, S56T, L100W, Y108F
VL: B1 VL with S31T
notes: as for B1
B5: 15G11-DI5 IgG1 (antibody, V domains shown)
VH: B1 VH with G33S, V37I, S56T, L100W, Y108F
VL: B1 VL
notes: as for B1
B6: 17H10 IgG1null (antibody, V domains shown)
VH: B1 VH with V37I, S54G, P61A, L100W, Y108E
VL: B1 VL with E28S, S31G, S53T, D55Q, T56S
notes: Human IgG1null and human Ckappa
B7: MH5 IgG1null (antibody, V domains shown)
VH: B1 VH with V37I, Y57T, T58I, P61A, L100Y
VL: B1 VL with E28S, D55Q, T56S, Y96L
notes: as for B2
B8: MH1 IgG1null (antibody, V domains shown)
VH: B1 VH with V37I, T58I, P61A
VL: B1 VL with E28S, D55Q, T56S, Y96L
notes: as for B2
B9: MH4 IgG1null (antibody, V domains shown)
VH: B1 VH with V37I, T58I, P61A, L100W, Y108E
VL: B1 VL with E28S, D55Q, T56S, Y96L
notes: as for B2

What was measured:
[1] = molecular target: T4, human ERBB3 His tagged, monomeric (human, UniProt P21860 20-643, biotinylated in the Alphascreen assays (sites not given)); test: Alphascreen competition in solution, competitor h24C05 IgG1, biotinylated human ERBB3-His
T4 construct: Used unbiotinylated as Biacore analyte and biotinylated in Alphascreen; treated as one molecule; also called human ERBB3-His (Acrobiosystems); biotinylated monomeric human ERBB3

[2] = molecular target: T1, rhesus monkey ERBB3 human Fc tagged …; test: direct binding ELISA on coated rhesus ERBB3-Fc, IgG1 titrated
Protocol: (§1) Binding and cross-reactivity of the lead panel to the recombinant proteins was initially assessed by binding ELISA. The human ERBB3 human Fc tagged recombinant protein and the rhesus monkey ERBB3 human Fc tagged recombinant protein were coated to the surface of MaxiSorp™ flat-bottom 96 well plate at 1 μg/ml. The purified IgG samples were titrated in two fold serial dilutions starting from 500 nM to 0.008 nM and allowed to bind to the coated antigens. The Fabs were detected using mouse anti-c-myc antibody followed by donkey anti-mouse IgG conjugated to horseradish peroxidase. The IgGs were detected using the mouse anti-human IgG conjugated to horseradish peroxidase. Binding signals were visualized with 3,3′,5,5′-Tetramethylbenzidine Substrate Solution (TMB) and the absorbance measured at 450 nm.

[3] = molecular target: T2, rhesus ERBB3 on transiently transfected …; test: flow cytometry, rhesus ERBB3-transfected HEK-293 cells, IgG1 titrated
Protocol: (§2) Purified IgGs were tested in FACs for binding to human and rhesus monkey ERBB3 expressed on transiently transfected HEK-293 cells and HEK-293 wild-type cells. The IgG samples were titrated in three-fold serial dilutions starting at 500 nM to 0.008 nM. Binding of IgGs was detected with a mouse anti-human IgG conjugated to FITC. Results were analyzed by examining the Mean Fluorescence Intensity (MFI) of 10000 cells per sample in the BL-1 channel detector of a flow cytometer (Attune™ NxT Acoustic Focusing Cytometer, Invitrogen/ThermoFisher Scientific).

[4] = molecular target: T5, human insulin (human, UniProt P01308 25-54; P01308 90-110, limits assumed); test: development risk ELISA on insulin
T5 construct: Off-target protein in the development risk (polyreactivity) ELISA

[5] = molecular target: T2, rhesus ERBB3 on transiently transfected …; test: flow cytometry, rhesus ERBB3-transfected HEK-293
Protocol: as §2
(§3) Antibodies to ERBB3 were analysed for concentration-dependent binding at the cell surface via flow cytometry. HEK-293 cells were transiently transfected with either human or rhesus ERBB3 full-length cDNAs. Anti-ERBB3 IgGs and an isotype control were then all tested in IgG1null format, over a concentration range of 500-0.008 nM for binding to human (FIG. 5A) and rhesus (FIG. 5B) transfected cells.

[6] = molecular target: T6, human ERBB3 on transiently transfected HEK-293 cells (human, UniProt P21860 20-1342); test: flow cytometry, human ERBB3-transfected HEK-293
T6 construct: also called human ERBB3+ HEK-293 cells
Protocol: as §2, §3

[7] = molecular target: T3, rhesus monkey ERBB3 His tag, monomeric; test: SPR (Biacore), captured IgG, monomeric ERBB3-His analyte
Protocol: (§4) Affinity (KD) of purified IgGs was determined via SPR with antigen in-solution on a Biacore® 3000 (GE). A mouse anti-human antibody (CH1 specific) was immobilized on a CM5 Sensor Chip to a level of 2000 RU in acetate buffer at pH 4.5 using amine coupling following the Wizard instructions for two channels. One channel was used for background signal correction. The standard running buffer HBS-EP pH 7.4 was used. Regeneration was performed with a single injection of 10 μl of 10 mM Glycine at pH 1.5 at […]. IgG samples were injected for 2 minutes at 50 nM at 30 μl/min followed by an off-rate of 60 seconds. The monomeric antigen (human ERBB3 His tagged or rhesus monkey ERBB3 His tag) was injected in two fold serial dilutions from 3 nM down to 0.2 nM, for 2 minutes at 30 μl/min followed by an off-rate of 300 seconds. The obtained sensorgrams were analysed using the Biacore® 3000 evaluation (BlAevaluation) software. The KD was calculated by simultaneous fitting of the association and dissociation phases to a 1:1 Langmuir binding model.
(§5) Biacore® analyses of binding affinity were performed for all IgGs to solution-phase, monomeric human and rhesus ERBB3 proteins.

[8] = molecular target: T4, human ERBB3 His tagged, monomeric; test: as above
Protocol: as §4, §5

[9] = molecular target: T6, human ERBB3 on transiently transfected …; test: flow cytometry, human ERBB3-transfected HEK-293 cells, IgG1 titrated
Protocol: as §2

[10] = molecular target: T7, human ERBB3 human Fc tagged recombinant protein (human, UniProt P21860 20-643); test: direct binding ELISA on coated human ERBB3-Fc, IgG1 titrated
T7 construct: also called human ERBB3-Fc; huERBB3
Protocol: as §1

T5 sequence (P01308 25-54 limits assumed, chain 1 of 2): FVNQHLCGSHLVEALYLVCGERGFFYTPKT
T5 sequence (P01308 90-110 limits assumed, chain 2 of 2): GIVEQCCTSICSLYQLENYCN

| Binder | IC50 (read off the curve) [1] [pM] | binding result [2] | binding result [3] | binding score [4] | maximum MFI, fold over isotype control background [5] [fold] | maximum MFI, fold over isotype control background [6] [fold] | Kd [7] [pM] | koff [7] [s⁻¹] | kon [7] [M⁻¹ s⁻¹] | Kd [8] [pM] | koff [8] [s⁻¹] | kon [8] [M⁻¹ s⁻¹] | EC50 (read off the curve) [9] [pM] | EC50 (read off the curve) [3] [pM] | EC50 (read off the curve) [10] [pM] | EC50 (read off the curve) [2] [pM] |
| --- | --- | --- | --- | --- | --- | --- | --- | --- | --- | --- | --- | --- | --- | --- | --- | --- |
| B1 | ~500 | binds | binds | < 10 |  |  |  |  |  |  |  |  |  |  |  |  |
| B2 |  |  |  |  | > 20 | > 20 | 230 | 0.0048 | 2e+07 | 270 | 0.0029 | 1.1e+07 |  |  |  |  |
| B3 |  |  |  | < 10 |  |  |  |  |  |  |  |  |  |  |  |  |
| B4 |  | binds |  | < 10 |  |  |  |  |  |  |  |  | ~1000 | ~300 |  |  |
| B5 |  |  | binds | < 10 |  |  |  |  |  |  |  |  |  |  | ~200 | ~200 |
| B6 |  |  |  |  | > 20 | > 20 | 650 | 0.0018 | 2.7e+06 | 190 | 0.0017 | 9.3e+06 |  |  |  |  |
| B7 |  |  |  |  | > 20 | > 20 | 510 | 0.006 | 1.2e+07 | 710 | 0.0041 | 5.8e+06 |  |  |  |  |
| B8 |  |  |  |  | > 20 | > 20 | 450 | 0.0056 | 1.3e+07 | 510 | 0.0035 | 6.8e+06 |  |  |  |  |
| B9 |  |  |  |  | > 20 | > 20 | 210 | 0.0047 | 2.2e+07 | 260 | 0.0029 | 1.1e+07 |  |  |  |  |
